Laboratory results as given in patent US20250026827A1 (Alector, published 2025).
Numbering of substitutions follows the chain as printed. Read-outs that look alike come from different tables or passages of the source.

B1: SB-40-20 (antibody, V domains shown)
VH: QVQLVQSGAEVKKPGASVKVSCKASGYTFTSFYISWVRQAPGQGLEWMGIINPSSGHTNYAQKLQGRVTMTTDTSTSTAYMELSSLRSEDTAVYYCARDTGEYSYSPHGMDVWGQGTTVTVSS
VL: EIVLTQSPATLSLSPGERATLSCRASQSVSSYLAWYQQKPGQAPRLLIYDSSNRATGIPARFSGSGSGTDFTLTISSLEPEDFAVYYCQQRDEHPPWTFGGGTKVEIK
notes: IgG
B2: SB-40-21 (antibody, V domains shown)
VH: B1 VH with F32Y, I34M, S35V, H57D, L64F, T72R, T76I, S85R, E89D
VL: B1 VL
notes: IgG
B3: SB-1-2 (antibody, V domains shown)
VH: QVQLVESGGGVVQPGRSLRLSCAASGFTFGSFGMNWVRQAPGKGLEWVSAITASGGSTFYADSVKGRFTISRDNSKNTLYLQMNSLRAEDTAVYYCAKDFTEVVGWLGMDVWGQGTTVTVSS
VL: EIVMTQSPGTLSLSPGERATLSCRASQSVSSSYLAWYQQKPGQAPRLLIYGASSRATGIPDRFSGSGSGTDFTLTISRLEPEDFAVYYCQLLGSSPRTFGGGTKVEIK
notes: IgG
B4: SB-2-7 (antibody, V domains shown)
VH: EVQLLESGGGLVQPGGSLRLSCAASGFTFARYGMHWVRQAPGKGLEWVSAISGLAGPTYADSVKGRFTISRDNSKNTLYLQMNSLRAEDTAVYYCARDQTAAAAIWGMDVWGQGTTVTVSS
VL: B3 VL with I2V, M4L, L91Q, L92S, G93S, S95H, R97F
notes: IgG
B5: SB-2-8 (antibody, V domains shown)
VH: B4 VH with E1Q, L5V, L11V, G16R, A30L, R31D, G53A, L54F, P57S
VL: B3 VL with I2V, M4L, L91Q, L92S, G93S, S95H, R97F
notes: IgG
B6: SB-8-15 (antibody, V domains shown)
VH: QVQLQESGPGLVKPSETLSLTCAVSGYSISAHYYWGWIRQPPGKGLEWIGSIYQSGHTYYNPSLKSRVTISVDTSKNQFSLKLSSVTAADTAVYYCARGGAMTPAGMDVWGQGTTVTVSS
VL: B3 VL with S54N, L91Q, L92V, G93Y, R97Y
notes: IgG
B7: SB-1-3 (antibody, V domains shown)
VH: B3 VH with Q1E, V11L, Q13K, R16G, G30S, S31A, F32Y, A53S, G56R, F59Y
VL: B3 VL
notes: IgG
B8: SB-8 (antibody, V domains shown)
VH: B6 VH with A31S, H32G, Q54H, H57S
VL: B3 VL with S54N, L91Q, L92V, G93Y, R97Y
notes: IgG; also called SB-8 (p)
B9: 18D5 (antibody, V domains shown)
VH: QVQLQQPGAELVRPGSSVKLSCKASGYTFTSYWVHWVKQRPIQGLEWIGNIDPSDSDTHYNQKFKDKASLTVDKSSSTAYMQLSSLTFEDSAVYYCVRGGTGTMAWFAYWGQGTLVTVSA
VL: DVVMTQTPLSLPVSLGDQASISCRSSQSLVHSYGNTYLYWYLQKPGQSPKLLIYRVSNRFSGVPDRFSGSGSGTDFTLKISRVEAEDLGVYFCFQGTHVPYTFGSGTKLEIK

How the values were obtained:
[1] = molecular target: T1, human SIRPβ1 isoform 1 on cells (human, UniProt O00241 30-398); assay: cell binding titration; target not given
T1 construct: On CHO cells (low level), on BWZ/BW5147.G.1.4 cells (reporter cells co-express human DAP12) or on primary human myeloid cells; also called huSIRPβ1; BWZ-huSIRPβ1

[2] = molecular target: T1, human SIRPβ1 isoform 1 on cells; assay: flow cytometry titration, BWZ-huSIRPβ1 cells
Procedure: (§1) In these experiments, two antibodies previously described were used as positive controls: antibody 18D5 (an anti-SIRPβ antibody that cross-reacts with SIRPα and SIRPβ) and antibody KWAR23 (an anti-SIRPβ antibody that cross-reacts with SIRPα, SIRPβ, and SIRPγ). These antibodies were recombinantly produced on a human IgG4 backbone. […] Serial dilutions of each of the anti-SIRPβ1 monoclonal antibodies and control antibodies were added to 10⁵ cells and allowed to achieve binding equilibrium at 4° C. After addition of fluorescently-labeled secondary antibody and brief washing steps, MFI values as a function of titrated antibody concentration were recorded via FACS analysis.
In Table 14 below, EC50 values assign relative affinity by adding increasing concentrations of antibody variants to cells overexpressing SIRPβ 1. Receptor bound antibodies were detected by staining cells with anti-human IgG PE secondary antibody (Southern Biotech). Curves were fit using nonlinear regression analysis with Graphpad Prism 6 software.

[3] = molecular target: T2, human SIRPα domain 1 (D1) Fc fusion (human, UniProt P78324 32-149); assay: Octet, IgG avid
T2 construct: also called human SIRPα D1-Fc; Human SIRPα Fc; not shown: C-terminal human IgG1 Fc

[4] = molecular target: T3, human SIRPα on cells (human, UniProt P78324 31-504); assay: flow cytometry on BWZ cells overexpressing human SIRPα, fluorescent secondary antibody, MFI
T3 construct: Whole entry
Procedure: (§2) To determine antigen specificity of anti-SIRPβ1 antibodies of the present disclosure, cell-based affinity measurements were performed to ascertain the apparent affinities of affinity-matured anti-SIRPβ 1 antibodies to cell surface-expressed antigen. BW5147.G.1.4 cells, an immortalized mouse T-cell line, were engineered to overexpress human SIRPβ1 (BWZ-huSIRPβ1) or human SIRPα (BWZ-huSIRPα). Jurkat cells, an immortalized human T cell line, endogenously express SIRPγ.
as §1
(§3) Receptor bound antibodies were detected by staining cells with anti-human IgG PE secondary antibody (Southern Biotech). Curves were fit using nonlinear regression analysis with Graphpad Prism 6 software.

[5] = molecular target: T3, human SIRPα on cells; assay: flow cytometry
Procedure: (§4) Cells were then washed twice and incubated in 100 ul FACS buffer containing 0.5 μg/ml PE-conjugated secondary antibody for 30 minutes on ice. Cells were washed twice in cold FACS buffer and acquired on a BD FACS Canto. Data analysis and calculation of mean fluorescence intensity (MFI) values or 00 positive cells was performed with FlowJo (TreeStar) software version 10.0.7.
(§5) Given the high sequence similarity between receptors of the SIRPβ family, anti-SIRPβ1 antibodies were also screened for cross-reactivity to human SIRPα.

[6] = molecular target: T4, mouse SIRPβ1 on CHO cells (mouse); assay: flow cytometry
T4 construct: Whole entry
T4 chain: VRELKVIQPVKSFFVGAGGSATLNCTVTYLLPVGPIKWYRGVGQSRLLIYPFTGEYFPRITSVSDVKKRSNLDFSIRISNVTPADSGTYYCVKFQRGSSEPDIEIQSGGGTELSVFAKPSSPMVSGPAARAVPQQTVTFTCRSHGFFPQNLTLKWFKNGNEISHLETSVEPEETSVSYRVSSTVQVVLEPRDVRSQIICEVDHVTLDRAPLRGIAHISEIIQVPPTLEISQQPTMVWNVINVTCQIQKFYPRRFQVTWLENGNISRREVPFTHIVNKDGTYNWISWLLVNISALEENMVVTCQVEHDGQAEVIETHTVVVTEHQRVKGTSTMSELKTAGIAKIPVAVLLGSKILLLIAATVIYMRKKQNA
Procedure: as §4, §5

[7] = molecular target: T1, human SIRPβ1 isoform 1 on cells; assay: flow cytometry
Procedure: as §4, §5

[8] = molecular target: T4, mouse SIRPβ1 on CHO cells; assay: flow cytometry
[9] = molecular target: T5, SIRPγ on Jurkat cells (human, UniProt Q9P1W8 29-387); assay: flow cytometry on Jurkat cells (endogenous SIRPγ), fold over isotype (MFI)
T5 construct: whole, on cells
Procedure: as §2, §1, §3

[10] = molecular target: T6, Soluble, human SIRPβ1-Fc isoform 1 (O00241) (human, UniProt O00241 30-371, limits assumed); assay: ELISA, antigen coated
T6 construct: Whole entry named; also called human SIRPβ1 isoform 1
Source text: Recombinant antigen based on the sequence of SIRPβ1 isoform 1 was used for selecting anti-SIRPβ1 antibodies from yeast library pools. To ascertain if the selected anti-SIRPβ1 antibodies cross-reacted with other isoforms of human SIRPβ1 or with cynomolgus SIRPβ1, recombinant antigens based on human SIRPβ1 isoform 3 sequence and cynomolgus SIRPβ1 isoform 1 sequence were produced by transient transfection in HEK293 cells. Purified, Fc-tagged recombinant proteins were adsorbed onto 96-well plates at 1 μg/mL overnight at 4° C. Plates were subsequently washed with PBS+0.05% Tween-20 and blocked with 1% BSA+PBS for 2 hours at room temperature. Antibodies diluted in blocking buffer at 1 μg/mL were added to wells, serially diluted, and allowed to bind antigen overnight at 4° C. The following day, the primary antibodies were removed and anti-human kappa light chain antibody conjugated to horseradish peroxidase diluted 1:10,000 in blocking buffer were added to wells and incubated for 1 hour at room temperature. Plates were washed with PBS+0.05% Tween-20 and 100 μL of TMB substrate solution was added to wells to generate a colorimetric signal proportional to amount of anti-SIRPβ1 antibody bound to antigen. Once the reaction reached an appropriate color intensity, 100 μL of Stop solution was added to quench the enzyme.
(§6) Eight anti-SIRPβ1 antibodies (four parental antibodies and four corresponding affinity matured antibodies) were selected for analysis.

[11] = molecular target: T3, human SIRPα on cells; assay: flow cytometry; remark: listed apart in the source
[12] = molecular target: T7, human SIRPβ1-Fc isoform 3 (Q5TFQ8) (human, UniProt Q5TFQ8 30-371, limits assumed); assay: ELISA on plate-coated huSirpB-Fc (Q5TFQ8.1), anti-human kappa-HRP, A450
T7 construct: Whole entry named; made in HEK293 cells; also called human SIRPβ1 isoform 3
Procedure: To ascertain if the selected anti-SIRPβ1 antibodies cross-reacted with other isoforms of human SIRPβ1 or with cynomolgus SIRPβ1, recombinant antigens based on human SIRPβ1 isoform 3 sequence and cynomolgus SIRPβ1 isoform 1 sequence were produced by transient transfection in HEK293 cells. Purified, Fc-tagged recombinant proteins were adsorbed onto 96-well plates at 1 μg/mL overnight at 4° C. Plates were subsequently washed with PBS+0.05% Tween-20 and blocked with 1% BSA+PBS for 2 hours at room temperature. Antibodies diluted in blocking buffer at 1 μg/mL were added to wells, serially diluted, and allowed to bind antigen overnight at 4° C. The following day, the primary antibodies were removed and anti-human kappa light chain antibody conjugated to horseradish peroxidase diluted 1:10,000 in blocking buffer were added to wells and incubated for 1 hour at room temperature. Plates were washed with PBS+0.05% Tween-20 and 100 μL of TMB substrate solution was added to wells to generate a colorimetric signal proportional to amount of anti-SIRPβ1 antibody bound to antigen. Once the reaction reached an appropriate color intensity, 100 μL of Stop solution was added to quench the enzyme.
as §6

[13] = molecular target: T8, mouse SIRPα D1-Fc (mouse, UniProt P97797 32-150, limits assumed); assay: Octet
T8 construct: domain: D1
T8 sequence (looked up): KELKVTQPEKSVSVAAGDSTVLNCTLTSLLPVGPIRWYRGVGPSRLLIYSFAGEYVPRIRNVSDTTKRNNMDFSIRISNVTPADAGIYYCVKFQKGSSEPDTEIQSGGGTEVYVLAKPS

[14] = molecular target: T9, mouse SIRPα on cells (mouse, UniProt P97797 32-513); assay: flow cytometry;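 for FOB: antibodies tested at 1 µg/ml for 30 min on ice against receptor-expressing cells, detected with a PE-labelled secondary antibody, read as mean fluorescence intensity relative to background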
T9 construct: whole, on cells
T9 sequence (looked up): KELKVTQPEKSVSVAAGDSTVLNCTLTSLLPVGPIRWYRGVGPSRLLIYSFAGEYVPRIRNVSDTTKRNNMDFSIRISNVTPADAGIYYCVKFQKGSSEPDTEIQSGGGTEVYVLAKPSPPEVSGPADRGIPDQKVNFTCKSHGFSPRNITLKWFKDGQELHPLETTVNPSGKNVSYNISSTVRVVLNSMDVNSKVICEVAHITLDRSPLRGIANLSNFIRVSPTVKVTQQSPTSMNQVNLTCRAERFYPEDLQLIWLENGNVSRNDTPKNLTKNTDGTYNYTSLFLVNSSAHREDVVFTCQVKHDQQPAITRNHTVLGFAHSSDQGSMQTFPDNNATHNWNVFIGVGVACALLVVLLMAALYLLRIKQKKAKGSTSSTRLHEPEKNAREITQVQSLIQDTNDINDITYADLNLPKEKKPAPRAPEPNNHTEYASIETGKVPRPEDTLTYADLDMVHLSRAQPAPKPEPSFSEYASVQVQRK

[15] = molecular target: T10, human SIRPβ1 domain 1 (D1) Fc fusion (human, UniProt O00241 30-148); assay: Octet, IgG avid
T10 construct: Made in HEK293/T cells with a heterologous signal peptide; also called Human SIRPβ1 D1-Fc; Human SIRPβ1-Fc; not shown: C-terminal human IgG1 Fc

[16] = molecular target: T3, human SIRPα on cells; assay: flow cytometry; remark: listed apart in the source
[17] = molecular target: T9, mouse SIRPα on cells; assay: flow cytometry; remark: listed apart in the source;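 for FOB: antibodies tested at 1 µg/ml for 30 min on ice against receptor-expressing cells, detected with a PE-labelled secondary antibody, read as mean fluorescence intensity relative to background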
[18] = molecular target: T4, mouse SIRPβ1 on CHO cells; assay: flow cytometry
[19] = molecular target: T1, human SIRPβ1 isoform 1 on cells; assay: flow cytometry; remark: listed apart in the source

T1 sequence (O00241 30-398): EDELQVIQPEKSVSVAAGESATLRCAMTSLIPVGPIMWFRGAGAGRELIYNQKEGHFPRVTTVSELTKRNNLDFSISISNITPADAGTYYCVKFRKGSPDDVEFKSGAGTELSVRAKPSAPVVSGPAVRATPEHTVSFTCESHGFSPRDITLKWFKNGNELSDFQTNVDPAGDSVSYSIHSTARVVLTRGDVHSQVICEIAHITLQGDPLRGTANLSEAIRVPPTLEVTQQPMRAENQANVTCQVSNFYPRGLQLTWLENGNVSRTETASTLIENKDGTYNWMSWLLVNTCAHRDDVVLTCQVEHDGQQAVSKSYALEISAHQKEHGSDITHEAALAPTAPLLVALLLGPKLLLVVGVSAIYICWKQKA
T6 sequence (O00241 30-371 limits assumed, one chain of several): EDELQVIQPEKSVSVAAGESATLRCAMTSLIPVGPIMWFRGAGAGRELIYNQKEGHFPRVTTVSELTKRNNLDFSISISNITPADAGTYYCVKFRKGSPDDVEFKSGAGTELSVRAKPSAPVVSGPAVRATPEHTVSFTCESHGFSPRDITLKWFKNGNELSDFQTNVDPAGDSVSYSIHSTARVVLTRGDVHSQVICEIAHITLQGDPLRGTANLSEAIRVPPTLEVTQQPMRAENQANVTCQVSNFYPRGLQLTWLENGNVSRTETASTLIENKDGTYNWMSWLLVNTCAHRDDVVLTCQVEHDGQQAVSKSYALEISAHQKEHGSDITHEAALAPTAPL
T5 sequence (Q9P1W8 29-387): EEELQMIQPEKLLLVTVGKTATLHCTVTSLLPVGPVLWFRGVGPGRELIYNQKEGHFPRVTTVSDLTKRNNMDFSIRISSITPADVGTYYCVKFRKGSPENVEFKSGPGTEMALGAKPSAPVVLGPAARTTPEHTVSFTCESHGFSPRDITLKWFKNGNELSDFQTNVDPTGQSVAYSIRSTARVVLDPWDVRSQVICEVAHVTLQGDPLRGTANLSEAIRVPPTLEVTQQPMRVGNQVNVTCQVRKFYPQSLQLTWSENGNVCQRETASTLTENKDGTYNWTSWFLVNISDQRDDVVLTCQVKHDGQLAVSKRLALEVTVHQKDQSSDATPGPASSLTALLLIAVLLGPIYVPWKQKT
T7 sequence (Q5TFQ8 30-371 limits assumed, one chain of several): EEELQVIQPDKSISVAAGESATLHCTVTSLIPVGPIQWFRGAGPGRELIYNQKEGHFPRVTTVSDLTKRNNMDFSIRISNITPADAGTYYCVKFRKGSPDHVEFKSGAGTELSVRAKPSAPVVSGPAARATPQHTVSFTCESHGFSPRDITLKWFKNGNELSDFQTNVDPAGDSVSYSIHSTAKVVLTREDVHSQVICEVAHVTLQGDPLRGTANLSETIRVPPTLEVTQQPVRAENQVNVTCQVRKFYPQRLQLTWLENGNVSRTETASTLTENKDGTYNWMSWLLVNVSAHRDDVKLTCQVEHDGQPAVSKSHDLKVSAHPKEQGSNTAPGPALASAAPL
T10 sequence (O00241 30-148 limits assumed): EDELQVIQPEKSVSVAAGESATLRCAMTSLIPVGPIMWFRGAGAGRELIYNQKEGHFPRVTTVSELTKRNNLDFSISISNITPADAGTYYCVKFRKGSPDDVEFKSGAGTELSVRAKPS

| Binder | EC50 [1] | EC50 [2] | binding result [3] | binding result [4] | FOB [5] | FOB [6] | FOB [7] | binding result [8] | binding result [9] | EC50 [10] | binding result [11] | binding result [12] | binding result [13] | binding result [14] | Kd [15] | FOB [16] | FOB [17] | FOB [18] | FOB [19] | EC50 (read off the curve) [4] |
| --- | --- | --- | --- | --- | --- | --- | --- | --- | --- | --- | --- | --- | --- | --- | --- | --- | --- | --- | --- | --- |
| B1 | 0.405 nM | 8.7 nM | no binding (tested: 100 nM) | no binding (tested: Log nM about 0.8 (about 7 nM)) | 1 fold over background | 2 fold over background | 3 fold over background | no binding (tested: 1 ug/ml) | no binding (tested: Log nM about 1.8 (about 60 nM)) | – | – | – | – | – | – | – | – | – | – | – |
| B2 | 0.715 nM | – | no binding (tested: 100 nM) | – | 1 fold over background | 2 fold over background | 5 fold over background | no binding (tested: 1 ug/ml) | – | 0.025 nM | no binding (tested: 1 ug/ml) | – | – | – | – | – | – | – | – | – |
| B3 | 0.059 nM | – | no binding (tested: 100 nM) | – | 1 fold over background | 1 fold over background | 4 fold over background | no binding (tested: 1 ug/ml) | – | 0.045 nM | no binding (tested: 1 ug/ml) | no binding (tested: 1 ug/mL) | – | – | – | – | – | – | – | – |
| B4 | 0.132 nM | – | no binding (tested: 100 nM) | – | 1 fold over background | 1 fold over background | 5 fold over background | no binding (tested: 1 ug/ml) | – | 0.029 nM | no binding (tested: 1 ug/ml) | no binding (tested: 1 ug/mL) | – | – | – | – | – | – | – | – |
| B5 | 0.174 nM | 0.203 nM | no binding (tested: 100 nM) | no binding (tested: Log nM about 0.8 (about 7 nM)) | 1 fold over background | 1 fold over background | 5 fold over background | no binding (tested: 1 ug/ml) | no binding (tested: Log nM about 1.8 (about 60 nM)) | – | – | – | – | – | – | – | – | – | – | – |
| B6 | 0.737 nM | 0.596 nM | no binding (tested: 100 nM) | no binding (tested: Log nM about 0.8 (about 7 nM)) | 1 fold over background | 1 fold over background | 7 fold over background | no binding (tested: 1 ug/ml) | no binding (tested: Log nM about 1.8 (about 60 nM)) | – | – | – | – | – | – | – | – | – | – | – |
| B7 | 0.062 nM | 0.0284 nM | no binding (tested: 100 nM) | no binding (tested: Log nM about 0.8 (about 7 nM)) | 0 fold over background | 2 fold over background | 4 fold over background | no binding (tested: 1 ug/ml) | no binding (tested: Log nM about 1.8 (about 60 nM)) | – | – | – | – | – | – | – | – | – | – | – |
| B8 | 0.441 nM | – | – | – | 1 fold over background | 2 fold over background | 2 fold over background | no binding (tested: 1 ug/ml) | – | 0.022 nM | – | no binding (tested: 1 ug/mL) | no binding (tested: 100 nM) | no binding (tested: 1 ug/ml) | 2.72 nM | 2.1 fold over background | 1.2 fold over background | 1.7 fold over background | 4.1 fold over background | – |
| B9 | – | 0.477 nM | – | – | – | – | – | – | – | – | – | – | – | – | – | – | – | – | – | ~0.2 nM |
